Positions count from the first letter of the chain named. Entries after “also recorded” stand apart in the source; their conditions may differ.

Assay [1] concerns the target T1, Human NRP2 (aa23-855) (Homo sapiens, UniProt O60462).
T1 construct: Human NRP2 (aa23-855)
T1 sequence (O60462 23-855 isoform O60462-3): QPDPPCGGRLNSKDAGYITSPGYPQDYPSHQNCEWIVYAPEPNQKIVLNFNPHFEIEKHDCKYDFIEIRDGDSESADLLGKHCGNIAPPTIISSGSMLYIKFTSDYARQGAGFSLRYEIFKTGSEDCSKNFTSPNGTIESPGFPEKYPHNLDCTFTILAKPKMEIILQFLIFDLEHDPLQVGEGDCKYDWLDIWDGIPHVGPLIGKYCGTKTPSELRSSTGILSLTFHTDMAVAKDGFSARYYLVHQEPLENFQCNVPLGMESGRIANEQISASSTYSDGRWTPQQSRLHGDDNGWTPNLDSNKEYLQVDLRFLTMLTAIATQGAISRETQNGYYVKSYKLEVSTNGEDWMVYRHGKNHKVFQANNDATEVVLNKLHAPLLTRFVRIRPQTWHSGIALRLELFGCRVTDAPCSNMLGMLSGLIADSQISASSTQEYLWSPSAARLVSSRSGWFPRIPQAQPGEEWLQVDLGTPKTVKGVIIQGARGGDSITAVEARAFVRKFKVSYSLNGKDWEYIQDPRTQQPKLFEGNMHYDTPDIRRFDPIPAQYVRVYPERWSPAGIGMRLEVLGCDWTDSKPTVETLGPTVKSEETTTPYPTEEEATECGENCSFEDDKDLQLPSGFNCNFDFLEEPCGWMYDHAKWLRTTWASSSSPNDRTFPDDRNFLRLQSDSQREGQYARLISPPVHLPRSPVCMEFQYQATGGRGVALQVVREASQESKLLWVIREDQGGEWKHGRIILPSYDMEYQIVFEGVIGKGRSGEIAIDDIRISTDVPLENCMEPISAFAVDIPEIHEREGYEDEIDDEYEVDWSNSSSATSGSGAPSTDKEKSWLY
The assay is described as follows: SPR binding affinity of anti-NRP2 antibodies to human NRP2 antigen. The note with it: KD = kd/ka, Langmuir (1:1) model. Here is the method: Anti-NRP2 antibody binding and affinity measurements. […] SPR experiments were conducted on a Bio-Rad ProteOn XPR36 Protein Interaction Array instrument. Biotinylated anti-human antibody (ThermoFisher Cat #7103302100) was immobilized on ProteOn NLC sensor chips. Anti-NRP2 antibodies were subsequently flowed over and captured by the anti-human antibody. Human NRP2 antigen protein was flowed over the captured antibody at varying concentrations (150, 50, 16.67, 5.56, 1.85 nM). The sensor chip surface was regenerated between each analyte run to remove anti-NRP2 antibodies and NRP2 protein. Data was double referenced against a surface with no anti-NRP2 antibody captured (immobilized anti-human antibody only) and a buffer only blank. Affinity constants were derived by globally fitting sensograms to a Langmuir (1:1) interaction model in the ProteOn manager software. For each anti-NRP2 antibody, data from the multiple NRP2 concentrations was fit as a single data set with dissociation rate constant (kd), association rate constant (ka) and Rmax values as global parameters. The reported binding affinity is the equilibrium dissociation constant (KD) calculated from kd/ka. • Running buffer: 50 mM HEPES, 300 mM NaCl, 5 mM CaCl2), 0.005% Tween-20, pH 7.4 • Immobilized antibody: CaptureSelect Human Fab-kappa Kinetics Biotin Conjugate, ThermoFisher Cat #7103302100 • Antigen: Human NRP2 (aa23-855) with C-terminal Avi-, Myc- and His-tags • Regeneration buffer: 10 mM glycine pH 2.0

Assay [2] relates to phospho-Akt levels in U251 glioblastoma cells. The assay is described as follows: Semaphorin 3F mediated inhibition of AKT phosphorylation in U251 cells. In kind it is cell-based. Here is the method: As shown schematically in FIG. 17, the treatment of cells with Sema3F should specifically block PI3K activity via NRP2 mediated interaction with plexin A1, thereby resulting in reduced phospho-Akt levels. To directly test the ability of the anti-NRP2 antibodies to block this effect, lysates were prepared following standard protocols (MesoScale Discovery, Phospho (Ser473)/Total Akt Assay Whole Cell Lysate Kit #K15100D). Serum starved and confluent U251 cells (Sigma, Cat. 09063001) were treated with 10 nM rapamycin (Sigma, Cat. 553211, 30 minutes), and blocking antibodies or controls were added (10 μg/mL, 30 minutes), followed by 25 nM Sema3F or serum free media for 1 hour in triplicate. Lysate protein concentrations were determined by BCA assay and samples were equalized to 0.4 mg/mL. Phospho and Total AKT were measured following the manufacturer's instructions and percent phosphorylation was calculated by dividing phosphorylated AKT relative units by total AKT relative units. Blocking of Sema3F for each antibody or control was determined by comparing percent phosphorylation of Sema3F treated cells to percent phosphorylation of non-Sema3F treated cells.

B1: aNRP2-10v13: humanized, affinity matured anti-NRP2 antibody, target domain b1; VH SEQ ID NO: 69, VL SEQ ID NO: 70 (antibody, V domains shown)
VH: EVQLVQSGAEVKKPGATVKISCKVSGFNIKDYYVHWVQQAPGKGLEWMGRIDVHDDETKYAPKFQGRVTITADTSTDTAYMELSSLRSEDTAVYYCATPIYGAREAWFAYWGQGTLVTVSS
VL: DIQMTQSPSSLSASVGDRVTITCTASSSVSSSYLHWYQQKPGKAPKLLIYRTSNLASGVPSRFSGSGSGTDFTLTISSLQPEDFATYYCHQYYRSPPTFGGGTKVEIK
modifications: Variable heavy chain region; Light chain variable region
With B1, binding in assay [1] was put at a Kd of 358 pM.

B2: aNRP2-10v5: humanized, affinity matured anti-NRP2 antibody, target domain b1; VH SEQ ID NO: 47, VL SEQ ID NO: 48 (antibody, V domains shown)
VH: B1 VH with V34I, H54E, A103S
VL: B1 VL
modifications: Variable heavy chain region; Light chain variable region
For the molecule B2, binding in assay [1] was characterised by a dissociation constant (Kd) of 200 pM. Against the preceding molecule, the Kd is about 1.8-fold lower.

B3: aNRP2-14v10: humanized, affinity matured anti-NRP2 antibody, target domain a2, semaphorin blocking; VH SEQ ID NO: 55, VL SEQ ID NO: 56 (antibody, V domains shown)
VH: QLQLVESGGGVVQPGRSLRLSCTVSGFSLTSYGVHWVRQAPGKGLEWVGLIWSGGSTDYSPAFISRFTISEDNSKSTVYLQMNSLRAEDTAVYFCARNSYSSGYYAMDYWGQGTTVTVSS
VL: DIQLTQSPSFLSASVGDRVTITCKASQNVGTAVAWYQQKPGKAPKLLIYSASNRYTGVPSRFSGSGSGTEFTLTISSLQPEDFATYYCQQRSRYPPYTFGGGTKVEIK
modifications: Variable heavy chain region; Light chain variable region
In assay [1], B3 displayed a Kd of 170 pM. Further, in assay [2] (antibody 10 μg/mL, 25 nM Sema3F 1 hour), the “blocking of the Sema3F induced decrease in intracellular phospho-Akt levels” value is given as “blocked the reduction in phospho-Akt levels; also recorded: block semaphorin 3F mediated inhibition of AKT phosphorylation; also recorded: can be blocked”.

B4: aNRP2-1v3: humanized, affinity matured anti-NRP2 antibody, target domain b2; VH SEQ ID NO: 43, VL SEQ ID NO: 44 (antibody, V domains shown)
VH: QVQLVQSGAEVKKPGASVKVSCKASGYTFTSYWMHWVRQAPGQGLEWMGAIYPGNSDTSYNQQFKGRVTMTRDTSTSTVYMELSSLRSEDTAVYYCARRGGGYFDYWGQGTLVTVSS
VL: B3 VL with T31A, R91Y, R93S, P96L, Y97L
modifications: Variable heavy chain region; Light chain variable region
Take B4: binding in assay [1] was characterised by a dissociation constant (Kd) of 17000 pM. This lies in the double-digit nanomolar range.

B5: Sema3F: Semaphorin 3F, NRP2 ligand used to reduce phospho-Akt levels (protein)
chain: SFPTQDHLPATPRVRLSFKELKATGTAHFFNFLLNTTDYRILLKDEDHDRMYVGSKDYVLSLDLHDINREPLIIHWAASPQRIEECVLSGKDVNGECGNFVRLIQPWNRTHLYVCGTGAYNPMCTYVNRGRRAQATPWTQTQAVRGRGSRATDGALRPMPTAPRQDYIFYLEPERLESGKGKCPYDPKLDTASALINEELYAGVYIDFMGTDAAIFRTLGKQTAMRTDQYNSRWLNDPSFIHAELIPDSAERNDDKLYFFFRERSAEAPQSPAVYARIGRICLNDDGGHCCLVNKWSTFLKARLVCSVPGEDGIETHFDELQDVFVQQTQDVRNPVIYAVFTSSGSVFRGSAVCVYSMADIRMVFNGPFAHKEGPNYQWMPFSGKMPYPRPGTCPGGTFTPSMKSTKDYPDEVINFMRSHPLMYQAVYPLQRRPLVVRTGAPYRLTTIAVDQVDAADGRYEVLFLGTDRGTVQKVIVLPKDDQELEELMLEEVEVFKDPAPVKTMTISSKRQQLYVASAVGVTHLSLHRCQAYGAACADCCLARDPYCAWDGQACSRYTASSKRASRAQDVRHGNPIRQCRGFNSNANKNAVESVQYGVAGSAAFLECQPRSPQATVKWLFQRDPGDRRREIRAEDRFLRTEQGLLLRALQLSDRGLYSCTATENNFKHVVTRVQLHVLGRDAVHAALFPPLSMSAPPPPGAGPPTPPYQELAQLLAQPEVGLIHQYCQGYWRHVPPSPREAPGAPRSPEPQDQKKPRNRR
B5: the “decrease in intracellular phospho-Akt levels” value in assay [2] (25 nM Sema3F, 1 hour) is reported as “approximately 50%”.

B6: aNRP2-2v4: humanized, affinity matured anti-NRP2 antibody, target domain c; VH SEQ ID NO: 45, VL SEQ ID NO: 46 (antibody, V domains shown)
VH: QVQLVQSGAEVKKPGASVKVSCKASGYTFTSYWMHWVRQAPGQGLEWMGVIHPNSASTFYNERFKTRATMTVDRSSSTAYMELSSLRSEDTAVYYCSRPGTVRRSDYWGQGTTVTVSS
VL: DVVMTQSPLSLPVTLGQPASISCRSSQNIVHSTGNTYLEWYQQRPGQSPRLLIYKVSNRFSGVPDRFSGSGSGTDFTLKISRVEAEDVGVYYCFQGSHVPWTFGGGTKVEIK
modifications: Variable heavy chain region; Light chain variable region
B6: the Kd in assay [1] turned out to be 2700 pM.
